Earlier results in EP4748396A1, “PHARMACEUTICAL COMPOSITION CONTAINING ANTI-NECTIN4 ANTIBODY-DRUG CONJUGATE AND ANTI-PD-1 ANTIBODY AND USE THEREOF” (priority 2023, dated 2025).

Conditions: 2019 FDA announcement

**Q.** With Enfortumab Vedotin [PADCEV] as the substance, how does the skin adverse reactions read?
**A.** may cause severe skin adverse reactions, including Stevens-Johnson syndrome (SJS) and toxic epidermal necrolysis (TEN)
